# Results published in PMC5595344, “Interaction of the cyclic-di-GMP binding protein FimX and the Type 4 pilus assembly ATPase promotes pilus assembly” (PLoS Pathogens, 2017).
# B1: 10XHis-MBP tagged recombinant PilB (natural protein)
# chain: MNDSIQLSGLSRQLVQANLLDEKTAVQAQAQAQRNKLSLVTHLVQSKLVSGLALAELSAEQFGIAYCDLNSLDKESFPRDAISEKLVRQHRVIPLWRRGNKLFVGISDPANHQAINDVQFSTGLTTEAILVEDDKLGLAIDKLFESATDGLAGLDDVDLEGLDIGSADKSTQEDASAEADDAPVVRFVNKMLLDAIKGGSSDLHFEPYEKIYRVRFRTDGMLHEVAKPPIQLASRISARLKVMAGLDISERRKPQDGRIKMRVSKTKSIDFRVNTLPTLWGEKIVMRILDSSSAQMGIDALGYEEDQKELYLAALKQPQGMILVTGPTGSGKTVSLYTGLNILNTTDINISTAEDPVEINLEGINQVNVNPRQGMDFSQALRAFLRQDPDVIMVGEIRDLETAEIAIKAAQTGHMVMSTLHTNSAAETLTRLLNMGVPAFNLATSVNLIIAQRLARKLCSHCKKEHEVPRETLLHEGFPEDKIGTFKLYSPVGCDHCKNGYKGRVGIYEVVKNTPALQRIIMEEGNSIEIAEQARKEGFNDLRTSGLLKAMQGITSLEEVNRVTKD
# notes: also called hexameric PilB; purified PilB; source: E. coli BL21(DE3), purified (Ni-NTA, amylose resin, SEC)
# B2: 10XHis-MBP tagged recombinant PilT (natural protein)
# chain: MDITELLAFSAKQGASDLHLSAGLPPMIRVDGDVRRINLPPLEHKQVHALIYDIMNDKQRKDFEEFLETDFSFEVPGVARFRVNAFNQNRGAGAVFRTIPSKVLTMEELGMGEVFKRVSDVPRGLVLVTGPTGSGKSTTLAAMLDYLNNTKYHHILTIEDPIEFVHESKKCLVNQREVHRDTLGFSEALRSALREDPDIILVGEMRDLETIRLALTAAETGHLVFGTLHTTSAAKTIDRVVDVFPAEEKAMVRSMLSESLQSVISQTLIKKIGGGRVAAHEIMIGTPAIRNLIREDKVAQMYSAIQTGGSLGMQTLDMCLKGLVAKGLISRENAREKAKIPENF
# notes: also called hexameric PilT; source: E. coli BL21(DE3), purified (Ni-NTA, amylose resin, SEC)
# B3: 6X-His tagged FimX (natural protein)
# chain: MAIEKKTIRLLILEDSQNEAERLVSLFRNAGHATRVHRLTSPEDLAETLQQSWDLLIAAPTSECLEPGEALATLRRQSRDIPFIQLVADNSSDAITDALMLGAQDALPQGEDERLVLVANRELAGLAERRARRAAELALREAEKRCQLLLDSSVDAITYVHDGMHIYANRSYMALFGYEDAEELEGLPVIDLIASCDQGAFKDFLKGYQNDQRQTELVCTGVKLDGQEFKARISLSAATYDGEPCIQVVIRGEVDNAELEEKLREVSSQDPVTGLYNRSHFLDLMDAAVQQAVTARKPSTLAYIHLNGYPSLQADHGLSGIDLLLGQLAGLMREQFGEEADLARFGDSIFAALFKGKTPEQAQAALQRLLKKVENHLFELNGRSAQATLSIGVAGLDEKTAKAQDVMNRAHRCADDAARKGGSQIKQYNPAEELAAAAQRGDVIAILQQALETNSFRLLFQPVISLRGDSHENYEVLLRLLNPQGQEVPPAEFLHAAKEAGLAEKIDRWVILNSIKLLAEHRAKGHQTKLFVHLSSASLQDPGLLPWLGVALKAARLPPESLVFQISEADATSYLKQAKQLTQGLATLHCQAAISQFGCSLNPFNALKHLTVQFIKIDGSFVQDLNQVENQEILKGLIAELHEQQKLSIVPFVESASVLATLWQAGATYIQGYYLQGPSQAMDYDFSSGDE
# notes: also called dimeric FimX; purified FimX; source: purified as 6X-His tagged protein as described previously [17]
# Assays:
# [1] = target: PilB (Pseudomonas aeruginosa, UniProt P22608); settings: 1 mM ATP; minimal activity
# [2] = target: T1, FimX (Pseudomonas aeruginosa, UniProt Q9HUK6); assay: surface plasmon resonance (BIAcore T100), FimX immobilized on CM5 chip; format: binding
# T1 construct: dimer in solution (ca. 150 kDa by SEC)
# [3] = target: the molecule itself; assay: SEC; preparative SEC after affinity purification; Superdex 200 Increase, 25 mM Tris pH 8.0, 250 mM NaCl, 5 mM MgCl2, 5 mM β-mercaptoethanol
# [4] = target: the molecule itself; assay: SEC; Superdex 200 10/300; 50 μM hexameric PilB and 50 μM dimeric FimX or FimX(AAA), 30 min at RT, 25 mM Tris pH 8, 150 mM NaCl, 5 mM MgCl2, 500 μM c-di-GMP; each protein also run alone; fractions on SDS-PAGE
molecule,measurement,setting,value
Nc1ncnc2c1ncn2[C@@H]1O[C@H](COP(=O)(O)OP(=O)(O)OP(=O)(O)O)[C@@H](O)[C@H]1O [ATP],ATPase activity,[1],PilB shows minimal ATPase activity in vitro that is not altered by addition of FimX
Nc1nc2c(ncn2[C@@H]2O[C@@H]3CO[P@](=O)(O)O[C@H]4[C@@H](O)[C@H](n5cnc6c(=O)[nH]c(N)nc65)O[C@@H]4CO[P@](=O)(O)O[C@H]3[C@H]2O)c(=O)[nH]1 [c-di-GMP],Kd,[2],88 ± 5.6 nM
B1,stoichiometry N,[3],6
B2,stoichiometry N,[3],6
B3,stoichiometry N,[4],2
